Ends that are not written are not given here. Ser‑Gly linker = flexible serine-glycine linker, six amino acids long
How the values were obtained:
[1] = molecular target: T1, B-cell lymphoma extra-large protein (Bcl-xL), first 209 amino acids with N-terminal avitag (UniProt Q07817 1-209, biotin on the avitag (BirA biotin ligase); a non-biotinylated form was used as the excess competitor in solution in the off-rate assays); experiment: radiolabeled HA-tagged peptide off-rate from immobilized Bcl-xL
T1 construct: range 1-209; Expressed in E. coli BL21(DE3); Used in solution (forward assays) or immobilized through biotin on streptavidin plates or beads (reverse assay, off-rate and HTSK experiments); not shown: His tag implied (pET24a NdeI/XhoI, Ni-NTA purification, anti-HIS probe)
T1 sequence (Q07817 other isoform, or with tags, fused parts or gaps): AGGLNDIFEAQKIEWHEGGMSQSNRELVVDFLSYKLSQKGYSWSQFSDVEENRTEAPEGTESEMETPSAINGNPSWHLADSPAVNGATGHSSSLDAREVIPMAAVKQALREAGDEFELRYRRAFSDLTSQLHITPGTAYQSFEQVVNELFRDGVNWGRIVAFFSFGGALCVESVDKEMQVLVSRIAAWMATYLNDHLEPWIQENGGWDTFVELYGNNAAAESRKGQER
Method: The radiolabeled peptides were allowed to bind to 30 pmol immobilized Bcl-xL for 1 hour in sample buffer (1×PBS, 1% (w/v) BSA, 0.1% (v/v) Tween 20, 10 μM biotin). The beads were magnetically separated, and washed 5× with sample buffer. The beads were resuspended in 1 mL of sample buffer containing 3 μM non-biotinylated Bcl-xL (˜100× molar excess relative to immobilized biotinylated Bcl-xL). At various time points, 100 μL of slurry was removed and the beads were magnetically separated and washed. The percent remaining at each time point was determined by dividing the counts per minute (cpm) on beads by total cpm (beads+washes). The peptide off-rate was determined by an exponential fit of the Percent counts on beads vs. Time (s).
The peptide ligands were made using a C-terminal HA tag, and affinity purified.

[2] = molecular target: T1, B-cell lymphoma extra-large protein …; experiment: radiolabeled peptide off-rate, reference D1

B1: D79, radiolabeled in vitro translated peptide with C-terminal serine-glycine linker and HA tag (peptide)
peptide: MIDTNVILNYKKAADHFSITM-{Ser‑Gly linker-HA tag}
modifications: also: 35S-labeled methionine
notes: Frequency rank 79 in the doped selection pool; also called peptide D79; not shown: flexible serine-glycine linker, six amino acids long; HA tag
[1]
  koff: 5.9e-07 s⁻¹
[2]
  fold slower off-rate than D1: > 3 fold

— US20180172683A1 (published 2018)
